# Target: FKBP12-Gag^HIV fusion protein (FKBP12 domain added to the N-terminal of Gag of HIV) (human immunodeficiency virus (HIV))
# Test: cell-based or functional assay
# Settings: scale: times
substance,measurement,value
luciferase protein fused with an FRB domain (FRB-Luc) (from UniProt P42345 2021-2113),luciferase activity in HEK293T cells 16 hours after introduction of VLPs,12
